Experimental data as given in the nanobody polyreactivity screen of Harvey et al. (2022).

Experiment: yeast display, Sf9 membrane polyspecificity reagent, FACS + sequencing; frameworks hold sequencing errors
Method in brief: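 A synthetic nanobody library was expressed on Saccharomyces cerevisiae BJ5465 by galactose induction for 36–48 hours. The library was stained for 1 hour at 4 °C with 10% biotinylated, detergent-solubilized Sf9 membrane reagent and enriched with streptavidin microbeads before FACS. Low and high (top ~1%) gates were set on anti-HA fluorescence for expression and streptavidin fluorescence for reagent binding, and each polyreactivity label reflects the gate of origin.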

Sequence	polyreactivity (PSR sort gate)
QVQLVESGGGLVQAGGSLRLSCAASGSIFTFYAMGWYRQAPGKERELVARITRGVSTNYADSVKGRFTISRDNAKITVYLQLNSLKPEDTAVYYCAAESGNRYEYWGQGTQVTVSS	low polyreactivity
QVQLVESGGGLVQAGGSLRLSCAASGSIFTGNAMGSYRQAPGKERELVAAISSSGARTYYADSVKGRFTISRDNAKNTVNLQMNSLKPEDTAVYYCNADSYTLYGLYDYWGQGTKVTVSS	low polyreactivity
QVQLVESGGGLVQAGGSLRLSCAASGSIFTHNAMGWYRQAPGKERVLVAAISSGGSTNYADSVKGRFTISRDNAKNTVYLQMNSLKPEDTAVYYCAKSIDGWYWRRRRYDYWGQGTQVTVSS	low polyreactivity
QVQLVESGGGLVQAGGSLRLSCAASGSIFTHYAMGWYRQAPGTERELVAGITSSGGSTYADSVKGRFTISRDNAKNTVYLQMNSLKPEDTAVYYCAAEQLRSRLIEYDYWRQGTQVTVSS	low polyreactivity
QVQLVESGGGLVQAGGSLRLSCAASGSIFTINAMGWYRQAPGKERELVAAISFSGGRTYYADSVKGRFTISRDNAKITVYLQMNSLKPEDTAVYYCAAPFYYYGVRFDYWGQGTQVTVSS	high polyreactivity
QVQLVESGGGLVQAGGSLRLSCAASGSIFTIYAMGWYRQAPGKERELVAAIRESSGSTYYADSVKGRFTISRDYAKNTVYFQINSLKPEDTAVYYCAADINYSSYDYWGQGTQVTVSS	high polyreactivity
QVQLVESGGGLVQAGGSLRLSCAASGSIFTIYAMGWYRQAPGKERELVATITGIADSTYYADSVKGRFTISRDNAKNTVYLQMNSLKPEDTAVYYCAADKYVAEYDYWGQGTQVTVSS	low polyreactivity
QVQLVESGGGLVQAGGSLRLSCAASGSIFTKYAMGWYRQAPGKERELVAAINARGGSTYYADSVKGRFTISRDNAKNTVYLQMNSLKPEDTAVYYCAARYGVGRADYYWGHGTQVTVSS	high polyreactivity
QVQLVESGGGLVQAGGSLRLSCAASGSIFTKYAMGWYRQAPGKERELVAAISASGGSTYYADSVKGRFTISRDNAKNTVYLQMNSLKPEDTAVYYCAARYWVREDYWGQGTQVTVSS	high polyreactivity
QVQLVESGGGLVQAGGSLRLSCAASGSIFTKYAMGWYRQAPGKERELVAAISSSGGSTYYADSVKGRFTISRDNAKNTVYLQMNSLKPEDTAVYYCAAEAVYYRSWRYYYWGQGTQVTVSS	high polyreactivity
QVQLVESGGGLVQAGGSLRLSCAASGSIFTLNTMGWYIQAPGKERELVAVISRSGDRTYYADSVKGRFTISRDNAKNTVYLQMNSLKPEDTAVYYCAADTTKRVRGYDYWGQGTQVTVSS	high polyreactivity
QVQLVESGGGLVQAGGSLRLSCAASGSIFTLYAMGWYRQAPGKEREFVAGISFSTGRTYYADSVKGRFTISRDNAKNTVYLQMNSLKPEDTAVYYCAAYVSHYWYGVYRDGYWGQGTQVTVSS	low polyreactivity
QVQLVESGGGLVQAGGSLRLSCAASGSIFTLYAMGWYRQAPGKERELVAAINRSGGSTYYADSVKGRFTISRDNAKNTVYLQMNSVKPEATAVYYCNARQYTGRRYDYWGQGTQVTVSS	high polyreactivity
QVQLVESGGGLVQAGGSLRLSCAASGSIFTLYAMGWYRQAPGKERELVAAITRSGGSTYYADSVKGRFTISRDNAKNTVYLQMNSLKPEDTAVYYCNKATAYGLDYWGQATQVTVSS	high polyreactivity
QVQLVESGGGLVQAGGSLRLSCAASGSIFTLYAMGWYRQAPGKERELVATINWSGGSTSYADSVKGRFTISRDNAKNTVYLQMNSLKPEDTAVYYCAADYYFWHGTGYDYWGQGTQVTVSS	low polyreactivity
QVQLVESGGGLVQAGGSLRLSCAASGSIFTPNAMGGYRQAPGKERELVAAISSSSDRTYYADSVKGRFTISRDNAKNTVYLQMNRLKPEDTAVYYCAAYAQKRYYWGQGTQVTVSS	high polyreactivity
QVQLVESGGGLVQAGGSLRLSCAASGSIFTPNAMGWYRQAPGKERELVAAISWSGARTYYADSVKGRFTISRDNAKNTVYLQMNSLKPEDTAVYYSYAFGSWGQGTQVTVSS	high polyreactivity
QVQLVESGGGLVQAGGSLRLSCAASGSIFTPYAMGWYRQAPGKERELGATISWSGGRTYYADSVKGRFTISRDNAKNTVYLQMNSLKPEDSAVYYCAARGYSSEYDYWGQGTQVTVSS	high polyreactivity
QVQLVESGGGLVQAGGSLRLSCAASGSIFTPYAMGWYRQAPGKERELVAAISWRGGNTYYADSVKGRFTISRDNAKNTFYLQMNSLKPEETAVYYCAAEQYSVYETGSYDYWGQGTQVTVSS	low polyreactivity
QVQLVESGGGLVQAGGSLRLSCAASGSIFTPYAMGWYRQAPGKEREVVATITWTGGSTYYADSVKGRFTISRDNAINTVYLQMNSLKPEDTAVYYCAADTYRSGRAYYYWGQGTQVTVSS	low polyreactivity
QVQLVESGGGLVQAGGSLRLSCAASGSIFTQYAMGWYRQAPGKERELVAAITSSGGSTHYADSVKGRFTISRDNAKNTVYLQMNSLKPEDTAVYYCAVPSFVYATFPYGYWGQGTQVTVSS	low polyreactivity
QVQLVESGGGLVQAGGSLRLSCAASGSIFTQYTMGWYRQAPGKERELVAAISRSGGRTYYADSVKGRFTISRDIAKNTVYLQMNSLKPEDTAVYYCAAEYTDKYEYWGQGTQVTVSS	high polyreactivity

Sequence	polyreactivity (PSR sort gate)
QVQLVESGGGLVQAGGSLRLSCAASGSIFTRNAMGWYRQAPGKEREFVAAISSSGVSTYYADSVKGRFTISRDNAKNTVYLQMNSLKPEDTAVYYCAARWGTKSGRYDYWGQGTQVTVSS	high polyreactivity
QVQLVESGGGLVQAGGSLRLSCAASGSIFTRYAMGGYRQAPGKERELVAAITAGGSSPYYADSVKGRFTISRDNAKNTVYLQMNSLKPEDTAVYYCNAVWWHPTDYDYWGQGSQVTVSS	low polyreactivity
QVQLVESGGGLVQAGGSLRLSCAASGSIFTSNAMGWYRQAPGKERELVAAISWSGTSTYYADSVKGRFTISRDNAKNTVYLQMNSLKPEDTAVYYCNADTNYWEDDYWGQGTQVTVSS	low polyreactivity
QVQLVESGGGLVQAGGSLRLSCAASGSIFTSYAMGWYRQAPGKERELVAAIDWSGGTTYYADSVKGRFTISRDNAKNPVYLQMNSLKPEDTAVYNRAADIYKYTVGSYDYWGQGTQVTVSS	low polyreactivity
QVQLVESGGGLVQAGGSLRLSCAASGSIFTTNAMGWYRQAPGKERELVARIDRAGSTYYADSVKGRFTISRDNAKNTVYLQMNSLKPEDTSVYYCAVEAVLSRPYATKFDYWGQGTEVTVSS	low polyreactivity
QVQLVESGGGLVQAGGSLRLSCAASGSIFTTYAMGWYRQAPGKERELVAVISRRGGSTYYADSVKGRFTISRDNAKNTVYLQMNSLKPEDTAVYYCNAAYVWYRIFVRRDYWGQGTQVTVSS	high polyreactivity
QVQLVESGGGLVQAGGSLRLSCAASGSIFTVNAMGWYRQAPGKERELVATISVTGGSTYADSVKGRFTISRENAKNTVYLQMNSLKPEDTAVYYCAADKTVRWDFDYRGQGTQVTVSS	low polyreactivity
QVQLVESGGGLVQAGGSLRLSCAASGSIFTVYAIGWYRQAPGKEREFVADIDSGGTYYADSVKGRFTISRDNAKNTVYLQMNSLKPEDSAVYYCAALAALDYGQLYLADDDYWGQGTQVTVSS	low polyreactivity
QVQLVESGGGLVQAGGSLRLSCAASGSIFTWNVKGWYRQAPGKERELVAAISSGGSTNYADSVKGRFTISRDNAKNTVYLQMNSLKPEDTAVYYCATYFRVWYRSYDYWGQGTQVTVSS	high polyreactivity
QVQLVESGGGLVQAGGSLRLSCAASGSIFTWYAMGWSRQAPGKERELVAAITRGGSTYADSVKGRFTISRDNANYTVYLQMNSLKPADTAVYYCNAVYGVYDFNYWGQGTQVTVSS	low polyreactivity
QVQLVESGGGLVQAGGSLRLSCAASGSIFTWYAMGWYRQAPGKERELVAAISEDGGSTYYADSVKGRFTISRDNAKNTVYLQMNSLKPEDTAVYYCATPVASVTGYDYWGQGTQVTVSS	low polyreactivity
QVQLVESGGGLVQAGGSLRLSCAASGSIFTWYAMGWYRQAPGKERELVAAITTGGDTYYADSVKGRFTISRDNAKNTVYLQMNSLKPEDTAVYYCAATPTYWYLCSPYDYWGQGTQVTVSS	low polyreactivity
QVQLVESGGGLVQAGGSLRLSCAASGSIFTYNAMGWYRQAPGKERELVAAISRGGGRTYYADSVKGRFTISRDNAKNTVYLQMNSLKPEDTAVYYCAADIYVRQRYPYYYWGQGTQVTVSS	high polyreactivity
QVQLVESGGGLVQAGGSLRLSCAASGSIFTYNAMGWYRQAPGKERELVAAITSSSGSSTYADSVKGRFTISRDNAKNTVYLQMNSLKPEDTAVYYCAAPILSFPSPYVQYDYWGQGTQVTVSS	low polyreactivity
QVQLVESGGGLVQAGGSLRLSCAASGSIFTYNTMGWYRQAPGKERELVAAISSGGRTYYADSVKGRFTISRDNAKNTVYLQMNSLKPEDTAVYYCAARYYFWGQGTQVTVSS	high polyreactivity
QVQLVESGGGLVQAGGSLRLSCAASGSIFTYYAMGWYRQAPGKEREFVAAISRRGGSTYYADSVKGRFTISRDNAKNTVYLQMNSLKPEDTAVYYCAADRWTRTLVKVIGRYYYWGQGTQVTVSS	high polyreactivity
QVQLVESGGGLVQAGGSLRLSCAASGSIFTYYAMGWYRQAPGKERELVAAISLDGGSTYYADSVKGRFTISRDNAKNTVYLQMNSLKPEDTAVYYCAADYRFFPYTYLYDYWGQGTQVTVSS	low polyreactivity
QVQLVESGGGLVQAGGSLRLSCAASGSIFTYYAMGWYRQAPGKERELVAAISRRGTRTYYADSVKGRFTISRDNAKNTVYLQMNSLKPEDTAVYYCAAEYTETGTAKMEYWGQGTQVTVSS	high polyreactivity
QVQLVESGGGLVQAGGSLRLSCAASGSIFTYYAMGWYRQAPGKERELVAAITSTGGSTYYADSVKGRFTISRDNAKNTVYLQMNSQKPEDTAVYYCATDYGYYDYWGQGTQVTVSS	low polyreactivity
QVQLVESGGGLVQAGGSLRLSCAASGSIFTYYVMGWYRQAPGKERELVAAITISGGSTYYADSVKGRFTISRDNAKNTVYLQMNRLNPEDTAVYYCAAEEVYYEADGFLYSYDYWGKGTQVTVSS	high polyreactivity
QVQLVESGGGLVQAGGSLRLSCAASGSIFVANAMGWYRQAPGKERELVAVISSGGGSTSYADSVKGRFTISRDNAKNTVYLQMSSLKPEDTAVYDCTRRRYDAGSTMGYWGQGTQVTVSS	low polyreactivity
